According to patent US20240002860, “SARS-CoV-2 SPIKE GLYCOPROTEIN-BINDING NUCLEIC ACID MOLECULE, SARS-CoV-2 DETECTION SENSOR, SARS-CoV-2 DETECTION REAGENT, SARS-CoV-2 DETECTION METHOD, AND SARS-CoV-2 VIRUS DEACTIVATOR” (NEC Solution Innovators, Ltd., published 2024):

B1: Binding nucleic acid molecule 1 (ssDNA)
DNA: GGTATGTCTCCGCCACTGAAATCCGTGCCTAATCTCACCCCACGGAATTCATGGCAAAGCCGAGGTGTCTTGTATTCAAAAAAAAAAAAAAAAAAAA
modifications: NG7 (modified thymine, formula 1) at underlined T, i.e. T residues 3' of the first 23 nt (underlining of some T differs between printings); 3' poly(dA)20 tail unmodified
B2: Binding nucleic acid molecule 8 (ssDNA)
DNA: CCACTGAAATCCGTGCCTAATCTCACCCCACGGAATTCATGGAAAAAAAAAAAAAAAAAAAA
modifications: NG7 (modified thymine, formula 1) at all T 3' of the first 11 nt
B3: Binding nucleic acid molecule 9 (ssDNA)
DNA: TCCGCCACTGAAATCTAATCTCACATTGTAAGCAAAGGAGAATAAAAAAAAAAAAAAAAAAAAAA
modifications: NG7 (modified thymine, formula 1) at all T 3' of the first 15 nt
B4: Binding nucleic acid molecule 11 (ssDNA)
DNA: TGTGCACTCTCCCGGTATCCCTAATCTCACCCGATACCAAAAAAAAAAAAAAAAAAAA
modifications: NG7 (modified thymine, formula 1) at all T 3' of the first 15 nt
B5: Binding nucleic acid molecule 12 (ssDNA)
DNA: TGACATGAGCCAGGTGCATCTTGAACGTCATAGATACCGTTGATGTGCTGAAAAAAAAAAAAAAAAAAAA
modifications: NG7 (modified thymine, formula 1) at all T 3' of the first 14 nt
B6: Binding nucleic acid molecule 13 (ssDNA)
DNA: GCTGATACTCGGTATCCCTAATCTCACCCGATACCGAAAAAAAAAAAAAAAAAAAA
modifications: NG7 (modified thymine, formula 1) at all T 3' of the first 12 nt
B7: Binding nucleic acid molecule 2 (ssDNA)
DNA: GGTATGTCTCCGCCACTGAAATCTAATCTCACATTGTAAGCAAAGGAGAATAAGCAAAGCCGAGGTGTCTTGTATTCAAAAAAAAAAAAAAAAAAAA
modifications: NG7 (modified thymine, formula 1) at all T 3' of the first 23 nt
B8: Control nucleic acid molecule (Song et al. 2020 aptamer) (ssDNA)
DNA: CAGCACCGACCTTGTGCTTTGGGAGTGCTGGTCCAAGGGCGTTAATGGACAAAAAAAAAAAAAAAAAAAAA
B9: Binding nucleic acid molecule 3 (ssDNA)
DNA: GGTATGTCTCCGCCACTGAAATCCCTGACCGCTGACCAAATCTCAGTGCAGATGCAAAGCCGAGGTGTCTTGTATTCAAAAAAAAAAAAAAAAAAAA
modifications: NG7 (modified thymine, formula 1) at all T 3' of the first 23 nt
B10: Binding nucleic acid molecule 4 (ssDNA)
DNA: GGTATGTCTCCGCCACTGAAATCTTGTCCCCTAATAGGTTCCGACTGACAAGTGCAAAGCCGAGGTGTCTTGTATTCAAAAAAAAAAAAAAAAAAAA
modifications: NG7 (modified thymine, formula 1) at all T 3' of the first 23 nt
B11: Binding nucleic acid molecule 5 (ssDNA)
DNA: GGTTTAGCCCTCGACTCCAAATGTGCACTCTCCCGGTATCCCTAATCTCACCCGATACCGTTGATGTGCTGCCAATACAAAAAAAAAAAAAAAAAAAA
modifications: NG7 (modified thymine, formula 1) at underlined T, i.e. T residues 3' of the first 23 nt (underlining of some T differs between printings)
B12: Binding nucleic acid molecule 6 (ssDNA)
DNA: GGTTTAGCCCTCGACTCCAAATGACATGAGCCAGGTGCATCTTGAACGTCATAGATACCGTTGATGTGCTGCCAATACAAAAAAAAAAAAAAAAAAAA
modifications: NG7 (modified thymine, formula 1) at all T 3' of the first 23 nt
B13: Binding nucleic acid molecule 7 (ssDNA)
DNA: GGTTTAGCCCTCGACTCCAAATGTGCTGATACTCGGTATCCCTAATCTCACCCGATACCGTTGATGTGCTGCCAATACAAAAAAAAAAAAAAAAAAAA
modifications: NG7 (modified thymine, formula 1) at all T 3' of the first 23 nt
B14: Binding nucleic acid molecule 1, 5'-biotin (ELAA) (ssDNA)
DNA: GGTATGTCTCCGCCACTGAAATCCGTGCCTAATCTCACCCCACGGAATTCATGGCAAAGCCGAGGTGTCTTGTATTC
modifications: NG7 (modified thymine, formula 1) at underlined T, i.e. T residues 3' of the first 23 nt
B15: Binding nucleic acid molecule 8, 5'-biotin (ELAA) (ssDNA)
DNA: CCACTGAAATCCGTGCCTAATCTCACCCCACGGAATTCATGG
modifications: NG7 (modified thymine, formula 1) at all T 3' of the first 11 nt

Legend:
[1] = target: T1, SARS-CoV-2 spike glycoprotein RBD domain (SARS-CoV-2, UniProt P0DTC2 SEQ:1-223); assay: SPR; SB1T + 0.1 mM dextran, 25 C
[2] = target: BSA (bovine serum albumin) (UniProt P02769 P02769:25-607); assay: SPR; signal approximately 0; conditions: tags: Sigma A7906
BSA (bovine serum albumin), sequence (P02769 25-607, one chain of several): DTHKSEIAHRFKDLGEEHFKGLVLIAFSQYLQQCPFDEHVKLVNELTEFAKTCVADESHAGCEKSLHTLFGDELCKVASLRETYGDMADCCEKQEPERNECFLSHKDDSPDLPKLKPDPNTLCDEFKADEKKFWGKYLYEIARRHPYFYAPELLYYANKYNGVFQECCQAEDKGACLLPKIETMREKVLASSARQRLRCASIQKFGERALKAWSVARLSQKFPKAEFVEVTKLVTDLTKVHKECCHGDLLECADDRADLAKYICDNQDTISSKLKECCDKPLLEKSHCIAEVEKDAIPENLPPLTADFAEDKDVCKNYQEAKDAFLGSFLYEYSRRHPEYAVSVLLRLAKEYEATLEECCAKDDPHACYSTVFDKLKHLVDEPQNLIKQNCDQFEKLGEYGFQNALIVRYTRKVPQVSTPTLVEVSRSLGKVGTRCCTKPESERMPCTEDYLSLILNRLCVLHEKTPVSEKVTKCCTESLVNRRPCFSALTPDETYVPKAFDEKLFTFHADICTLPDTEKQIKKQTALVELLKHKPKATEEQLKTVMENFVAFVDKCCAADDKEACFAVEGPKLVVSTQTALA

[3] = target: T1, SARS-CoV-2 spike glycoprotein RBD domain; assay: SPR
[4] = target: T1, SARS-CoV-2 spike glycoprotein RBD domain; assay: SPR; SB1T, no dextran, 25 C
[5] = target: SARS-CoV-2 spike glycoprotein S1+S2 domain (ECD) (SARS-CoV-2, UniProt P0DTC2 SEQ:2-1201); assay: SPR; 400 nM protein, SB1T, 25 C; conditions: tags: His; Sino Biological 40589-V08B1
[6] = target: SARS-CoV-2 spike glycoprotein S1 domain (SARS-CoV-2, UniProt P0DTC2 SEQ:2-673); assay: SPR; 400 nM protein, SB1T, 25 C; conditions: tags: Elabscience PKSR030481
[7] = target: T1, SARS-CoV-2 spike glycoprotein RBD domain; assay: ELONA

Binder | Kd [1] | binding result [2] | Kd [3] | Kd [4] | also measured
B1 | 3.2 nM | no binding | 1.2 nM | – | –
B2 | 5.3 nM | – | – | 2 nM | –
B3 | 20.8 nM | – | – | 2.1 nM | –
B4 | 16.6 nM | – | < 0.1 nM | – | –
B5 | 7.4 nM | – | – | 2.4 nM | –
B6 | 12 nM | – | < 0.1 nM | – | –
B7 | 3.5 nM | no binding | – | 1.7 nM | –
B8 | – | – | – | 65000 nM | –
B9 | – | no binding | – | – | binding result [5]: binds; binding result [6]: binds
B10 | – | no binding | – | – | binding result [5]: binds; binding result [6]: binds
B11 | 2.8 nM | no binding | < 0.1 nM | – | –
B12 | 6.7 nM | no binding | – | 3.1 nM | –
B13 | 5.5 nM | no binding | < 0.1 nM | – | –
B14 | – | – | – | – | binding result [7]: binds
B15 | – | – | – | – | binding result [7]: binds
